Source: patent publication US12649776B2, “Scaffold proteins and therapeutic nanoconjugates based on nidogen” (UNIVERSITAT AUTÒNOMA DE BARCELONA, priority 2019, dated 2026)
Positions count from the first letter of the chain named.

Legend:
[1] = Intrinsic fluorescence (Centre of Spectral Mass) vs temperature, unfolding temperature determination; type: physicochemical; details: for Stability indexes Tm, Tonset and ΔT from CSM profiles: carbonate and FDA-approved buffers A9, B6, D1
Procedure: Fluorescence spectra were recorded in a Cary Eclipse spectrofluorimeter (Agilent Technologies, Mulgrave, Australia). A quartz cell with 10 mm path length and a thermostated holder was used. The excitation and emission slits were set at 5 nm. Excitation wavelength (λex) was set at 295 nm. Emission spectra were acquired within a range from 310 to 450 nm. The protein concentration was 0.2 mg/mL in carbonate buffer (166 mM NaCO3H, pH 8). In order to evaluate the conformation stability against heating we obtained the fluorescence spectra at each temperature at a 1° C./min scan rate and we calculated the Centre of Spectral Mass (CSM) for each spectrum. CSM is a weighted average of the fluorescence spectrum peak. Also it is related with the relative exposure of the Trp to the protein environment. The maximum red-shift in the CSM of the Trp, is compatible with a large solvent accessibility (Li, T. M.; et al., Biochemistry 1976, 15, 5571-80; Ruan, K and Weber, G, Biochemistry 1989, 28 (5), 2144-53 and Mohana-Borges, R. et al., Proceedings of the National Academy of Sciences of the United States of America 1999, 96 (14), 7888-93) and the protein unfolding.
The Centre of Spectral Mass (CSM) was calculated for each of the fluorescence emission according to Eq.1 (Lakowicz, J. R.; et al., 1991, Biophys Chem 39(1), 79-84), where Ii is the fluorescence intensity measure at the wavelength λi.
Midpoint unfolding temperature (Tm) was determined as the temperature value that correspond to the inflexion point of the CSM vs T° curve. We also determined the Tonset as the temperature where the CSM value begins to increase.

[2] = Volume size distribution of protein nanoparticles and nanoconjugates by Dynamic Light Scattering (DLS); type: physicochemical; details: for Nanoparticle size after assembly with ZnCl2 (DLS): assembled with ZnCl2 (0.04 mM and further concentrations up to 0.16 mM)
Procedure: Volume size distribution of all protein nanoparticles and nanoconjugates were determined by Dynamic Light Scattering (DLS) at 633 nm in a Zetasizer Nano ZS (Malvern Instruments) in triplicate.
Volume size distribution of protein nanoparticles was determined in a Zetasizer Nano ZS (Malvern Instruments) by Dynamic Light Scattering (DLS) at 633 nm in triplicates.
The integrity of the recombinant proteins was checked by mass spectrometry (MALDI-TOF), TGX (Tris-Glycine eXtended) Stain-Free acrylamide gels electrophoresis (BioRad) and Western Blot analysis using anti-His monoclonal antibody (1:1000; Santa Cruz, ref. 57598). Protein concentration was determined by Bradford (Biorad) assay with an Albumin (Roche) standard curve. GFP fluorescence emission (510 nm) was determined on purified proteins with a Cary Eclipse fluorescence spectrophotometer (Agilent Technologies) using an excitation wavelength of 450 nm. The volume and size distribution of nanoparticles were measured by dynamic light scattering (DLS) at 633 nm through a Zetasizer Nano ZS (Malvern Instruments) using quartz cuvettes.

[3] = Precipitation assay against increasing concentrations of ZnCl2; type: physicochemical; details: increasing ZnCl2 up to 0.16 mM
Procedure: T22-NIDOmut3-H6, T22-NIDOmut4 T215V-H6 and T22-NIDOmut5-H6 were selected to proceed with the characterization due to their best production yields (24, 26 and 28 mg/L, respectively). At this point, volume-size distribution of each candidate was studied via DLS (FIG. 16). All three candidates were equivalent to the original T22-NIDOmut2-H6 in size before and after assembly into nanoparticles with ZnCl2 (0.04 mM). […] Precisely because Zn is used to mediate this assembly, it was deemed appropriate to perform a precipitation assay against increasing concentrations of ZnCl2, up to 0.16 mM, (FIG. 17A) to test whether the new proteins were resistant to Zn-induced precipitation or not.

[4] = Stability study in buffers: soluble protein loss after dialysis (Bradford, Nanodrop)
Procedure: For the stability study in other buffers, purified protein fractions were dialyzed against chosen FDA-approved buffer and carbonate as control. Protein concentration was initially set at 2.0 mg/ml in carbonate buffer and dialysed into 0.5 ml of each new buffer. Samples were centrifuged for 15 min 15000 g to remove precipitate and the remaining soluble protein concentration was determined by Bradford's assay and Nanodrop.
The stability of resulting proteins was studied in three FDA-approved buffers, and carbonate as control buffer.

[5] = tested on: CXCR4+ HeLa cells; experiment: In vitro cell viability of FdU nanoconjugates (CellTiter-Glo Luminescent Cell Viability Assay); type: cell-based, Human; details: CXCR4+ HeLa cell line, 25 nM, 48 h
Procedure: HeLa cells (ATCC, CCL-2) were incubated in opaque 96-well plates in 90 μl of MEM alpha medium (Gibco) containing 10% of Fetal bovine serum (Gibco) in humidified atmosphere and 5% CO 2 at 37° C. Then, 10 μl of T22-NIDOmut3-H6-FdU and T22-NIDOmut2-H6-FdU nanoconjugates were added along with the control T22-NIDOmut3-H6 at 25 nM final concentration and incubated for additional 48 h. Cell viability was finally tested by CellTiter-Glo® Luminescent Cell Viability Assay (Promega) in a Victor 3 luminescent plate reader (Perkin Elmer). All samples were analyzed in triplicate and data expressed as mean % of viability (related to control cells)+/− standard error.

B1: STMH6: Isolated hexahistidine-tagged stefin A (protein, UniProt P01040 1-98, looked up)
Cystatin-A: MIPGGLSEAKPATPEIQEIVDKVKPQLEEKTNETYGKLEAVQYKTQVVAGTNYYIKVRAGDNKYMHLKVFKSLPGQNEDLVLTGYQVDKNKDDELTGF
modifications: His6 tag
notes: Isolated hexahistidine-tagged stefin A
In the case of B1, the Tm ([1]; *Tm value assuming that the maximal CSM values represent the entirely unfolding state of the protein) is reported as “≅76° C.*” and the “Tonset, 1” value ([1]; temperature where the CSM value begins to increase) is reported as 70 °C.

B2: T22-NIDOmut2-H6: Modular protein: N-terminal T22 CXCR4 ligand, linker, mutated human nidogen-1 G2 domain (NIDOmut2), C-terminal poly-histidine; SEQ ID NO: 61 (protein)
chain: RRWCYRKCYKGYCYRKCRGGSSRSSSPQRVNGKVKGRIFVGSSQVPIVFENTDLASYVVMNHGNSYTAISTIPETVGYSLLPLAPVGGIIGWMFAVEQDGFKNGFSITGGEFTRQAEVTFVGHPGNLVIKQRFSGIDEHGHLTIDTELEGRVPQIPFGSSVHIEPYTELYHYSTSVITSSSTREYTVTEPERDGASPSRIYTYQWRQTITFQECVHDDSRPALPSTQQLSVDSVSVLYNQEEKILAYALSNSIGPVREGSPDAKHHHHHH
With B2 the “Nanoparticle size (volume size distribution, DLS)” value ([2]; self-assembled material in storage (carbonate) buffer) was about 12 nm, the “Loss of the initial soluble protein by Zn-induced precipitation” value [3] was “up to 66%” and the “% Precipitation (Bradford)” value ([4]; buffer A9) was 12.7%. For the same molecule, the “% Precipitation (Nanodrop)” value ([4]; buffer A9) was 29.0%, the “% Precipitation (Bradford)” value ([4]; buffer B6) was “None” and the “% Precipitation (Nanodrop)” value ([4]; buffer B6) was “None”. The “% Precipitation (Bradford)” value ([4]; buffer Carbonate) was 17.6%, the “% Precipitation (Nanodrop)” value ([4]; buffer Carbonate) was 23.9% and the “% Precipitation (Bradford)” value ([4]; buffer D1) was 84.1%. For the same molecule, the “% Precipitation (Nanodrop)” value ([4]; buffer D1) was 86.5%.

B3: T22-NIDOmut5-H6: T22 fusion protein, SEQ ID NO: 113 (protein)
chain: B2 chain with V45T, V121Q, H139K, H141N, F157E, C214S, V215T
modifications: T22-NIDOmut5-H6
With B3 the “Nanoparticle size after assembly with ZnCl2 (DLS)” value [2] was “nanoparticles of higher size”, the “Stability indexes Tm, Tonset and ΔT from CSM profiles” value [1] was “Second protein with better stability indexes” and the “% Precipitation (Bradford)” value ([4]; buffer A9) was “None”. For the same molecule, the “% Precipitation (Nanodrop)” value ([4]; buffer A9) was “None”, the Solubility after dialysis ([4]; buffer A9) was “best suited” and the “% Precipitation (Bradford)” value ([4]; buffer B6) was 15.4%. For the same molecule, the “% Precipitation (Nanodrop)” value ([4]; buffer B6) was 26.6%, the “% Precipitation (Bradford)” value ([4]; buffer Carbonate) was 60.4% and the “% Precipitation (Nanodrop)” value ([4]; buffer Carbonate) was 24.2%. For the same molecule, the “% Precipitation (Bradford)” value ([4]; buffer D1) was 50.1% and the “% Precipitation (Nanodrop)” value ([4]; buffer D1) was 62.4%.

B4: T22-NIDOmut3-H6: T22-linker-NIDOmut3-H6 fusion protein, SEQ ID NO: 106 (protein)
chain: B2 chain with H139K, H141N
modifications: T22-NIDOmut3-H6
For B4, the “Nanoparticle size after assembly with ZnCl2 (DLS)” value [2] was 17 nm, the Cytotoxicity [5] was “did not cause any cytoxicity” and the “Stability indexes Tm, Tonset and ΔT from CSM profiles” value [1] was “shows the highest values”. The “% Precipitation (Bradford)” value ([4]; buffer A9) was 10.25%, the “% Precipitation (Nanodrop)” value ([4]; buffer A9) was 15.4% and the “% Precipitation (Bradford)” value ([4]; buffer B6) was 5.4%. The “% Precipitation (Nanodrop)” value ([4]; buffer B6) was “None”, the Solubility after dialysis ([4]; buffer B6) was “remained highly soluble” and the “% Precipitation (Bradford)” value ([4]; buffer Carbonate) was 17.6%. For the same molecule, the “% Precipitation (Nanodrop)” value ([4]; buffer Carbonate) was 24.5%, the “% Precipitation (Bradford)” value ([4]; buffer D1) was 83.6% and the “% Precipitation (Nanodrop)” value ([4]; buffer D1) was 84.3%.
